Consider 1 substance from patent US20050113284A1, “Drug for regenerating tissue and vessel and method therefor” (priority 2001, published 2005).

In this test the target is T1, MERMUC bait protein (Homo sapiens, UniProt Q8N307).
T1 construct: Bait-2 corresponds to a 123 amino acid portion of the C-terminus (bait-2); expressed in transfected cells; host or cells: yeast AH109 strain (pGBKT7 bait vector)
T1 sequence (Q8N307 587-709): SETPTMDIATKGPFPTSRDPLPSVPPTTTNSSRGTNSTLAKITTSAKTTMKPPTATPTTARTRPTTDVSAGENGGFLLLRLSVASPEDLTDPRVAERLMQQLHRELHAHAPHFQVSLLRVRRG
Kind of test: Yeast two-hybrid binding of c-Met prey deletion proteins to MERMUC bait-2. The conditions noted are these: yeast growth on SD/-Leu,-Trp,-His and SD/-Leu,-Trp,-Ade; human MERMUC bait-2. As for the experimental part:
The present invention was performed using the reported yeast two-hybrid system (Proc. Natl. Acad. Sci. USA., 1991, Vol. 88, p.9578-9582) based on conventional method and the experimental protocols appended to the reagents.
PCR was performed using DNA (clone No. 3-309) corresponding to the 91 amino acids (amino acids 993-1083 of SEQ ID NO: 4) of the C-terminal region of the human HGF receptor c-Met β chain that was identified in the previous Example to have the binding ability to the cytoplasmic region of human MERMUC as a template. […]
The binding activity between the c-Met prey proteins derived from the 7 DNA fragments and the MERMUC bait protein was analyzed by the yeast two-hybrid system described in Example 1. Specifically, the binding activity was evaluated based on the growth of yeast transformed with the vector on 2 kinds of yeast minimum media, i.e., (1) SD/-Leu, -Trp, -His media and (2) SD/-Leu, -Trp, -Ade media.

Regarding “prey DNA G: c-Met prey protein, amino acids 993-1043 of SEQ ID NO: 4 (RRLLQPEYCPDPLYEVMLKCWHPKAEMRPSFSELVSRISAIFSTFIGEHYV; listed as Homo sapiens)”, the “binding activity with MERMUC bait protein” value is reported as “− (no binding)”.
